Assay [1] has as its target T1, recombinant human activated FVII (FVIIa) (human, UniProt P08709 61-212; P08709 213-466, ten glutamate residues of the Gla domain may be gamma-carboxylated).
T1 sequence 1: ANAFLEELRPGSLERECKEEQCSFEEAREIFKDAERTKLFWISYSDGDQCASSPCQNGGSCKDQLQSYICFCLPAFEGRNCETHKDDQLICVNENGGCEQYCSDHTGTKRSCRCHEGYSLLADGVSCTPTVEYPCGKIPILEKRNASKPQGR
T1 sequence 2: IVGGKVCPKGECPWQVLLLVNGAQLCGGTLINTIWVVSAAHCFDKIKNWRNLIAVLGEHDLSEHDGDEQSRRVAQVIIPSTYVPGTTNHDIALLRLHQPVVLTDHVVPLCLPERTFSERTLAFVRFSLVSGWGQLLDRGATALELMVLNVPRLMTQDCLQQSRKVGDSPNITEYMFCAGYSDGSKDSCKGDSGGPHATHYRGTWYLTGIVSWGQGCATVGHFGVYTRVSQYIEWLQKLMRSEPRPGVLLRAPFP
Briefly: cell-based or functional assay.

Assay [2] concerns the target T2, sTLT1 (SEQ ID No: 3 with six histidine residues added at the C-terminus) (human, UniProt Q86YW5 16-162).
T2 construct: Soluble TLT-1 used in SPR
T2 sequence: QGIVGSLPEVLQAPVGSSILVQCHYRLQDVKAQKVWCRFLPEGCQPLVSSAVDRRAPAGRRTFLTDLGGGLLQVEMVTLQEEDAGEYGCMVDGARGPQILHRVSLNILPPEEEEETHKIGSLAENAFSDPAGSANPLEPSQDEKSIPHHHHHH
The assay is described as follows: dissociation constant listed with the stimulatory activities; value of the anti-TLT-1 arm.

Assay [3] has as its target T1, recombinant human activated FVII (FVIIa). The assay is described as follows: dissociation constant listed with the stimulatory activities; method not given.

The text below walks through data of patent US20220064329A1 (Novo Nordisk, published 2022).

Usually Kd stands for a measure of binding affinity in units of concentration.

B1: biAb0011 (bispecific antibody, human IgG4 S228P, kappa)
heavy 1: QVQLQESGPGLVEPSQTLSLTCTVSGYSITSDSAWSWIRQPPGKKLEWIGYIQYSGSTNYNPSLKSRVTISRDTSKNQFSLKLSSVTAADTAVYYCARSVNYYGNSFAVGYWGQGTLVTVSSASTKGPSVFPLAPCSRSTSESTAALGCLVKDYFPEPVTVSWNSGALTSGVHTFPAVLQSSGLYSLSSVVTVPSSSLGTKTYTCNVDHKPSNTKVDKRVESKYGPPCPPCPAPEFLGGPSVFLFPPKPKDTLMISRTPEVTCVVVDVSQEDPEVQFNWYVDGVEVHNAKTKPREEQFNSTYRVVSVLTVLHQDWLNGKEYKCKVSNKGLPSSIEKTISKAKGQPREPQVYTLPPSQEEMTKNQVSLTCLVKGFYPSDIAVEWESNGQPENNYKTTPPVLDSDGSFLLYSKLTVDKSRWQEGNVFSCSVMHEALHNHYTQKSLSLSLGK
light 1: EIVLTQSPATLSLSPGERATLSCRASQGVSDYLHWYQQKPGQAPRLLIKYASQPATGIPARFSGSGSGTDFTLTISSLEPEDFAVYYCQNGHSFPLTFGQGTKLEIKRTVAAPSVFIFPPSDEQLKSGTASVVCLLNNFYPREAKVQWKVDNALQSGNSQESVTEQDSKDSTYSLSSTLTLSKADYEKHKVYACEVTHQGLSSPVTKSFNRGEC
heavy 2: not shown
light 2: DIVMTQTPLSSPVTLGQPASISCRSSQSLVHRQGNTYFHWLQQRPGQPPRLLIYKVSNRFSGVPDRFSGSGAGTDFTLKISRVEAEDVGVYYCSQSTHVPYTFGQGTKLEIKRTVAAPSVFIFPPSDEQLKSGTASVVCLLNNFYPREAKVQWKVDNALQSGNSQESVTEQDSKDSTYSLSSTLTLSKADYEKHKVYACEVTHQGLSSPVTKSFNRGEC
notes: Duobody, constant domain type H (IgG4): anti-FVII(a) arm mAb0875, anti-TLT-1 arm mAb1076; also called mAb0875 x mAb1076
Regarding B1, in assay [1], the “Stimulation (fold): FXa generated by FVIIa with lipidated TLT-1 and 100 nM biAb, relative to free FVIIa” value (“Stimulation (fold) … relative to free FVIIa” below) was 20.3 fold. The results for the Kd in assay [2] and in assay [3] were 2.9 nM and 0.28 nM, respectively.

B2: biAb0097 (bispecific antibody, human IgG4 S228P, kappa)
heavy 1: DVQLQESGPGLVEPSQSLSLTCTVTGYSITSDSAWSWIRQFPGNKLEWMGYIQYSGSTNYNPSLKSRISVTRDTSKNQFFLRLSSVTAEDTATYYCTRSVNYYGNSFAVGYWGQGTSVTVSSASTKGPSVFPLAPCSRSTSESTAALGCLVKDYFPEPVTVSWNSGALTSGVHTFPAVLQSSGLYSLSSVVTVPSSSLGTKTYTCNVDHKPSNTKVDKRVESKYGPPCPPCPAPEFLGGPSVFLFPPKPKDTLMISRTPEVTCVVVDVSQEDPEVQFNWYVDGVEVHNAKTKPREEQFNSTYRVVSVLTVLHQDWLNGKEYKCKVSNKGLPSSIEKTISKAKGQPREPQVYTLPPSQEEMTKNQVSLTCLVKGFYPSDIAVEWESNGQPENNYKTTPPVLDSDGSFLLYSKLTVDKSRWQEGNVFSCSVMHEALHNHYTQKSLSLSLGK
light 1: EIVLTQSPATLSLSPGERATLSCRASQGISDYLHWYQQKPGEAPRLLIKYTSQPATGIPARFSGSGSGTDFTLTISSLEPEDVGVYYCQSGHSFPLTFGAGTKLELKRTVAAPSVFIFPPSDEQLKSGTASVVCLLNNFYPREAKVQWKVDNALQSGNSQESVTEQDSKDSTYSLSSTLTLSKADYEKHKVYACEVTHQGLSSPVTKSFNRGEC
heavy 2: not shown
light 2: DIVMTQTPLSSPVTLGQPASISCRSSQSLVHRNGNTYFHWLQQRPGQPPRLLIYKVSNRFSGVPDRFSGSGAGTDFTLKISRVEAEDVGVYYCSQSTHVPYTFGQGTKLEIKRTVAAPSVFIFPPSDEQLKSGTASVVCLLNNFYPREAKVQWKVDNALQSGNSQESVTEQDSKDSTYSLSSTLTLSKADYEKHKVYACEVTHQGLSSPVTKSFNRGEC
notes: Duobody, constant domain type H (IgG4): anti-FVII(a) arm mAb0872, anti-TLT-1 arm mAb1047; also called mAb0872 x mAb1047
As to B2, the “Stimulation (fold) … relative to free FVIIa” value in assay [1] was found to be 17.4 fold. The dissociation constant Kd in assay [2] stood at 75 nM; in assay [3] it was 2.2 nM.

B3: biAb0091 (bispecific antibody, human IgG4 S228P, kappa)
heavy 1: QVQLQESGPGLVEPSQTLSLTCTVSGYSITSDSAWSWIRQPPGKKLEWIGYIQYSGSTNYNPSLKSRVTISRDTSKNQFSLKLSSVTAADTAVYYCARSVNYYGNSFAVGYWGQGTLVTVSSASTKGPSVFPLAPCSRSTSESTAALGCLVKDYFPEPVTVSWNSGALTSGVHTFPAVLQSSGLYSLSSVVTVPSSSLGTKTYTCNVDHKPSNTKVDKRVESKYGPPCPPCPAPEFLGGPSVFLFPPKPKDTLMISRTPEVTCVVVDVSQEDPEVQFNWYVDGVEVHNAKTKPREEQFNSTYRVVSVLTVLHQDWLNGKEYKCKVSNKGLPSSIEKTISKAKGQPREPQVYTLPPSQEEMTKNQVSLTCLVKGFYPSDIAVEWESNGQPENNYKTTPPVLDSDGSFLLYSKLTVDKSRWQEGNVFSCSVMHEALHNHYTQKSLSLSLGK
light 1: EIVLTQSPATLSLSPGERATLSCRASQGVSDYLHWYQQKPGQAPRLLIKYASQPATGIPARFSGSGSGTDFTLTISSLEPEDFAVYYCQNGHSFPLTFGQGTKLEIKRTVAAPSVFIFPPSDEQLKSGTASVVCLLNNFYPREAKVQWKVDNALQSGNSQESVTEQDSKDSTYSLSSTLTLSKADYEKHKVYACEVTHQGLSSPVTKSFNRGEC
heavy 2: not shown
light 2: DIVMTQTPLSSPVTLGQPASISCRSSQSLVHRNGNTYFHWLQQRPGQPPRLLIYKVSNRFSGVPDRFSGSGAGTDFTLKISRVEAEDVGVYYCSQSTHVPYTFGQGTKLEIKRTVAAPSVFIFPPSDEQLKSGTASVVCLLNNFYPREAKVQWKVDNALQSGNSQESVTEQDSKDSTYSLSSTLTLSKADYEKHKVYACEVTHQGLSSPVTKSFNRGEC
notes: Duobody, constant domain type H (IgG4): anti-FVII(a) arm mAb0875, anti-TLT-1 arm mAb1049; also called mAb0875 x mAb1049
As for B3, the “Stimulation (fold) … relative to free FVIIa” value in assay [1] amounted to 11.3 fold. Further, the Kd in assay [2] was 320 nM; in assay [3], 0.28 nM.

B4: biAb0096 (bispecific antibody, human IgG4 S228P, kappa)
heavy 1: QVQLQESGPGLVEPSQTLSLTCTVSGYSITSDSAWSWIRQPPGKKLEWIGYIQYSGSTNYNPSLKSRVTISRDTSKNQFSLKLSSVTAADTAVYYCARSVNYYGNSFAVGYWGQGTLVTVSSASTKGPSVFPLAPCSRSTSESTAALGCLVKDYFPEPVTVSWNSGALTSGVHTFPAVLQSSGLYSLSSVVTVPSSSLGTKTYTCNVDHKPSNTKVDKRVESKYGPPCPPCPAPEFLGGPSVFLFPPKPKDTLMISRTPEVTCVVVDVSQEDPEVQFNWYVDGVEVHNAKTKPREEQFNSTYRVVSVLTVLHQDWLNGKEYKCKVSNKGLPSSIEKTISKAKGQPREPQVYTLPPSQEEMTKNQVSLTCLVKGFYPSDIAVEWESNGQPENNYKTTPPVLDSDGSFLLYSKLTVDKSRWQEGNVFSCSVMHEALHNHYTQKSLSLSLGK
light 1: EIVLTQSPATLSLSPGERATLSCRASQGVSDYLHWYQQKPGQAPRLLIKYASQPATGIPARFSGSGSGTDFTLTISSLEPEDFAVYYCQNGHSFPLTFGQGTKLEIKRTVAAPSVFIFPPSDEQLKSGTASVVCLLNNFYPREAKVQWKVDNALQSGNSQESVTEQDSKDSTYSLSSTLTLSKADYEKHKVYACEVTHQGLSSPVTKSFNRGEC
heavy 2: not shown
light 2: DIVMTQTPLSSPVTLGQPASISCRSSQSLVHRNGNTYFHWLQQRPGQPPRLLIYKVSNRFSGVPDRFSGSGAGTDFTLKISRVEAEDVGVYYCSQSTHVPYTFGQGTKLEIKRTVAAPSVFIFPPSDEQLKSGTASVVCLLNNFYPREAKVQWKVDNALQSGNSQESVTEQDSKDSTYSLSSTLTLSKADYEKHKVYACEVTHQGLSSPVTKSFNRGEC
notes: Duobody, constant domain type H (IgG4): anti-FVII(a) arm mAb0875, anti-TLT-1 arm mAb1047; also called mAb0875 x mAb1047
Take B4: in assay [1], the “Stimulation (fold) … relative to free FVIIa” value worked out at 12.4 fold. Besides, the Kd was 75 nM in assay [2] and 0.28 nM in assay [3].

B5: biAb0016 (bispecific antibody, human IgG4 S228P, kappa)
heavy 1: QVQLQESGPGLVEPSQTLSLTCTVSGYSITSDSAWSWIRQPPGKKLEWIGYIQYSGSTNYNPSLKSRVTISRDTSKNQFSLKLSSVTAADTAVYYCARSVNYYGNSFAVGYWGQGTLVTVSSASTKGPSVFPLAPCSRSTSESTAALGCLVKDYFPEPVTVSWNSGALTSGVHTFPAVLQSSGLYSLSSVVTVPSSSLGTKTYTCNVDHKPSNTKVDKRVESKYGPPCPPCPAPEFLGGPSVFLFPPKPKDTLMISRTPEVTCVVVDVSQEDPEVQFNWYVDGVEVHNAKTKPREEQFNSTYRVVSVLTVLHQDWLNGKEYKCKVSNKGLPSSIEKTISKAKGQPREPQVYTLPPSQEEMTKNQVSLTCLVKGFYPSDIAVEWESNGQPENNYKTTPPVLDSDGSFLLYSKLTVDKSRWQEGNVFSCSVMHEALHNHYTQKSLSLSLGK
light 1: EIVLTQSPATLSLSPGERATLSCRASQGVSDYLHWYQQKPGQAPRLLIKYASQPATGIPARFSGSGSGTDFTLTISSLEPEDFAVYYCQNGHSFPLTFGQGTKLEIKRTVAAPSVFIFPPSDEQLKSGTASVVCLLNNFYPREAKVQWKVDNALQSGNSQESVTEQDSKDSTYSLSSTLTLSKADYEKHKVYACEVTHQGLSSPVTKSFNRGEC
heavy 2: not shown
light 2: DIVMTQTPLSSPVTLGQPASISCRSSQSLVHRPGNTYFHWLQQRPGQPPRLLIYKVSNRFSGVPDRFSGSGAGTDFTLKISRVEAEDVGVYYCSQSTHVPYTFGQGTKLEIKRTVAAPSVFIFPPSDEQLKSGTASVVCLLNNFYPREAKVQWKVDNALQSGNSQESVTEQDSKDSTYSLSSTLTLSKADYEKHKVYACEVTHQGLSSPVTKSFNRGEC
notes: Duobody, constant domain type H (IgG4): anti-FVII(a) arm mAb0875, anti-TLT-1 arm mAb1038; also called mAb0875 x mAb1038
Take B5: the “Stimulation (fold) … relative to free FVIIa” value in assay [1] was 17.3 fold. In addition, the Kd is 19 nM in assay [2] and 0.28 nM in assay [3].
